Assay results reported in patent publication US20210011017A1.

Columns and labels:
[1] = target: recombinant BoHV-1 gE CT-His polypeptide (Bovine herpesvirus type 1) (UniProt Q08101); assay: competitive ELISA on gE CT-His; serum, then HRP-MAb 2H8F3 (competitor); negative control reference
[2] = target: streptavidin (NEB, Cat #A00160) (UniProt P22629); assay: ELISA, streptavidin well without peptide, secondary antibody only
[3] = target: recombinant BoHV-1 gE CT-His polypeptide (Bovine herpesvirus type 1) (UniProt Q08101); assay: ELISA on coated gE CT-His, secondary antibody only (negative control)

Sequence of UniProt P22629 (P22629 37-163 limits assumed): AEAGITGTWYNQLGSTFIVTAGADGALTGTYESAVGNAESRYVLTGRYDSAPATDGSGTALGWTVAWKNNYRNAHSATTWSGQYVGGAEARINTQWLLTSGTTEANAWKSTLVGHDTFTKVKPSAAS

| Substance | % Inhibition [1] [%] | S/N Ratio [1] | O.D. 450 nm [2] [O.D. 450 nm] | O.D. 450 nm [3] [O.D. 450 nm] |
| --- | --- | --- | --- | --- |
| inactivated, non-infected fetal calf serum (Atlas biologicals), negative control | 0 | 1 | – | – |
| goat anti-mouse IgG [HRP] secondary antibody | – | – | 0.055 | 0.057 |
